In publication PMC4102620 (Journal of molecular biology, 2014):

Molecular target: yeast E1 (Uba1) (yeast, UniProt P22515 1-1024, biotin on the C-terminal biotin ligase acceptor peptide)
Test: fluorescent FL-UB-E1 band on non-reducing SDS-PAGE

binding result: binds
B1: fluorescently labeled wild type ubiquitin (FL-UB) (natural protein)
chain: not shown
modifications: fluorescein (iodoacetamide) on the unique cysteine of the N-terminal tag
